40 variants from the Human Domainome abundance scans (Beltran et al. 2025) can be followed below.

To fix the notation:
B1: RNA-binding E3 ubiquitin-protein ligase MEX3C, residues 325 to 391; numbered along this chain, Q5U5Q3 (parent)
chain: GQTTVQVRVPYRVVGLVVGPKGATIKRIQQQTHTYIVTPSRDKEPVFEVTGMPENVDRAREEIEMHI

± gives the uncertainty stated by the source.

The variants in the data set derive from B1. The data set is described as follows: abundance fitness (aPCA) (normalised: wild type 0, dead -1); higher = more abundant; growth selection in yeast, the domain comes from the species named. To be noted: Homo sapiens.
For GQTTVQVRVPYRVVGLVVGPKGATIKRIQQQTHTYIVTPSRRKEPVFEVTGMPENVDRAREEIEMHI [D42R], the abundance fitness was -0.408 ± 0.052.
For GQTTVQVRVPYRVVGLVVGPKGATIKRIQQQTHTYIVTPSRNKEPVFEVTGMPENVDRAREEIEMHI [D42N] the value was -0.071 ± 0.1; for GQTTVQVRVPYRVVGLVVGPKGATIKRIQQQTHTYIVTPSRGKEPVFEVTGMPENVDRAREEIEMHI [D42G], 0.099 ± 0.04; for GQTTVQVRVPYRVVGLVVGPKGATIKRIQQQTHTYIVTPSRIKEPVFEVTGMPENVDRAREEIEMHI [D42I], -0.342 ± 0.14.
As for GQTTVQVRVPYRVVGLVVGPKGATIKRIQQQTHTYIVTPSRHKEPVFEVTGMPENVDRAREEIEMHI [D42H], the abundance fitness was -0.191 ± 0.091.
Regarding GQTTVQVRVPYRVVGLVVGPKGATIKRIQQQTHTYIVTPSRMKEPVFEVTGMPENVDRAREEIEMHI [D42M], the abundance fitness is -0.128 ± 0.089.
GQTTVQVRVPYRVVGLVVGPKGATIKRIQQQTHTYIVTPFRDKEPVFEVTGMPENVDRAREEIEMHI [S40F]: the abundance fitness is -0.349 ± 0.13.
As for GQTTVQVRVPYRVVGLVVGPKGATIKRIQQQTHTYIVTPMRDKEPVFEVTGMPENVDRAREEIEMHI [S40M], the abundance fitness was -0.016 ± 0.1.
For GQTTVQVRVPYRVVGLVVGPKGATIKRIQQQTHTYIVTPERDKEPVFEVTGMPENVDRAREEIEMHI [S40E] the value was -0.029 ± 0.1; for GQTTVQVRVPYRVVGLVVGPKGATIKRIQQQTHTYIVTPDRDKEPVFEVTGMPENVDRAREEIEMHI [S40D], 0.138 ± 0.1.
For GQTTVQVRVPYRVVGLVVGPKGATIKRIQQQTHTYIVTPTRDKEPVFEVTGMPENVDRAREEIEMHI [S40T] the value was -0.081 ± 0.092.
The value for GQTTVQVRVPYRVVGLVVGPKGATIKRIQQQTHTYIVTPPRDKEPVFEVTGMPENVDRAREEIEMHI [S40P] was 0.08 ± 0.072.
With GQTTVQVRVPYRVVGLVVGPKGATIKRIQQQTHTYIVTPLRDKEPVFEVTGMPENVDRAREEIEMHI [S40L], the abundance fitness was -0.133 ± 0.057.
With GQTTVQVRVPYRVVGLVVGPKGATIKRIQQQTHTYIVTPCRDKEPVFEVTGMPENVDRAREEIEMHI [S40C], the abundance fitness is -0.332 ± 0.093.
The value for GQTTVQVRVPYRVVGLVVGPKGATIKRIQQQTHTYIVTPIRDKEPVFEVTGMPENVDRAREEIEMHI [S40I] was -0.34 ± 0.24; that for GQTTVQVRVPYRVVGLVVGPKGATIKRIQQQTHTYIVTPVRDKEPVFEVTGMPENVDRAREEIEMHI [S40V] was -0.229 ± 0.066; that for GQTTVQVRVPYRVVGLVVGPKGATIKRIQQQTHTYIVTPHRDKEPVFEVTGMPENVDRAREEIEMHI [S40H] was -0.352 ± 0.23.
For the variant GQTTVQVRVPYRVVGLVVGPKGATIKRIQQQTHTYIVTPQRDKEPVFEVTGMPENVDRAREEIEMHI [S40Q], the abundance fitness is -0.033 ± 0.1.
For the variant GQTTVQVRVPYRVVGLVVGPKGATIKRIQQQTHTYIVTPKRDKEPVFEVTGMPENVDRAREEIEMHI [S40K], the abundance fitness was -0.072 ± 0.081.
The value for GQTTVQVRVPYRVVGLVVGPKGATIKRIQQQTHTYIVTPNRDKEPVFEVTGMPENVDRAREEIEMHI [S40N] was 0.032 ± 0.13; that for GQTTVQVRVPYRVVGLVVGPKGATIKRIQQQTHTYIVTPARDKEPVFEVTGMPENVDRAREEIEMHI [S40A] was 0.021 ± 0.067; that for GQTTVQVRVPYRVVGLVVGPKGATIKRIQQQTHTYIVTPGRDKEPVFEVTGMPENVDRAREEIEMHI [S40G] was 0.03 ± 0.047.
On to GQTTVQVRVPYRVVGLVVGPKGATIKRIQQQTHTYIVTPYRDKEPVFEVTGMPENVDRAREEIEMHI [S40Y], for which the abundance fitness was -0.137 ± 0.33.
For GQTTVQVRVPYRVVGLVVGPKGATIKRIQQQTHTYIVTPWRDKEPVFEVTGMPENVDRAREEIEMHI [S40W] the value was -0.215 ± 0.07.
As for GQTTVQVRVPYRVVGLVVGPKGATIKRIQQQTHTYIVTESRDKEPVFEVTGMPENVDRAREEIEMHI [P39E], the abundance fitness was -0.424 ± 0.088.
Consider GQTTVQVRVPYRVVGLVVGPKGATIKRIQQQTHTYIVTRSRDKEPVFEVTGMPENVDRAREEIEMHI [P39R], for which the abundance fitness was -0.276 ± 0.059.
For the variant GQTTVQVRVPYRVVGLVVGPKGATIKRIQQQTHTYIVTKSRDKEPVFEVTGMPENVDRAREEIEMHI [P39K], the abundance fitness was -0.149 ± 0.078.
GQTTVQVRVPYRVVGLVVGPKGATIKRIQQQTHTYIVTYSRDKEPVFEVTGMPENVDRAREEIEMHI [P39Y]: the abundance fitness is -0.328 ± 0.26.
For GQTTVQVRVPYRVVGLVVGPKGATIKRIQQQTHTYIVTDSRDKEPVFEVTGMPENVDRAREEIEMHI [P39D] the value was -0.383 ± 0.11; for GQTTVQVRVPYRVVGLVVGPKGATIKRIQQQTHTYIVTCSRDKEPVFEVTGMPENVDRAREEIEMHI [P39C], -0.221 ± 0.13; for GQTTVQVRVPYRVVGLVVGPKGATIKRIQQQTHTYIVTISRDKEPVFEVTGMPENVDRAREEIEMHI [P39I], -0.57 ± 0.24.
The value for GQTTVQVRVPYRVVGLVVGPKGATIKRIQQQTHTYIVTTSRDKEPVFEVTGMPENVDRAREEIEMHI [P39T] was -0.409 ± 0.089; that for GQTTVQVRVPYRVVGLVVGPKGATIKRIQQQTHTYIVTGSRDKEPVFEVTGMPENVDRAREEIEMHI [P39G] was -0.467 ± 0.07; that for GQTTVQVRVPYRVVGLVVGPKGATIKRIQQQTHTYIVTHSRDKEPVFEVTGMPENVDRAREEIEMHI [P39H] was -0.402 ± 0.17.
On to GQTTVQVRVPYRVVGLVVGPKGATIKRIQQQTHTYIVTWSRDKEPVFEVTGMPENVDRAREEIEMHI [P39W], for which the abundance fitness is -0.58 ± 0.11.
GQTTVQVRVPYRVVGLVVGPKGATIKRIQQQTHTYIVTVSRDKEPVFEVTGMPENVDRAREEIEMHI [P39V]: the abundance fitness was -0.476 ± 0.074.
For GQTTVQVRVPYRVVGLVVGPKGATIKRIQQQTHTYIVTQSRDKEPVFEVTGMPENVDRAREEIEMHI [P39Q] the value was -0.477 ± 0.12; for GQTTVQVRVPYRVVGLVVGPKGATIKRIQQQTHTYIVTFSRDKEPVFEVTGMPENVDRAREEIEMHI [P39F], -0.286 ± 0.14; for GQTTVQVRVPYRVVGLVVGPKGATIKRIQQQTHTYIVTMSRDKEPVFEVTGMPENVDRAREEIEMHI [P39M], -0.502 ± 0.12.
GQTTVQVRVPYRVVGLVVGPKGATIKRIQQQTHTYIVTNSRDKEPVFEVTGMPENVDRAREEIEMHI [P39N]: the abundance fitness is -0.234 ± 0.16.
